In US12066430:
Blank lines part the entries; values can stand above or below the substance they belong to.

Experiments:
Assay in all cases: cell-based or functional assay
[1] = molecular target: single-chain trimer (SCT) of HLA-A2/MART1 26-35(A27L), on cells (human)
[2] = molecular target: HLA-A2 on control CD80+HLA-A2+ K562 cells (no defined peptide) (human)
[3] = molecular target: single-chain trimer (SCT) of HLA-A2/NYESO1 157-165(C165V), on cells (human)
[4] = molecular target: single-chain trimer (SCT) of HLA-A2 with the USP7 mutant 9-mer peptide …, on K562 cells (human)

percentage of trogocytosis^+ MART1-K562 cells (one per 10,000 control cells) [1]: 1.6% | share of MART1-K562 among trogocytosis^- target cells (1:1 mixture, co-incubated with 1G4-Jurkat) [1]: 70.8% | percentage of trogocytosis^+ control CD80^+HLA-A2^+ K562 cells (NYESO1-K562 dilution experiment) [2]: 0.33% | percentage of trogocytosis^+ control cells (MART1-K562 dilution experiment) [2]: 0.41% | percentage of trogocytosis^+ NYESO1-K562 target cells (diluted 1:10,000 in control cells) [3]: 70.8% | share of NYESO1-K562 among trogocytosis^+ target cells (1:1 mixture of NYESO1-K562 and MART1-K562, read by TCR dextramer staining) [3]: 95.1% | share of NYESO1-K562 among trogocytosis^- target cells (1:1 mixture, co-incubated with 1G4-Jurkat) [3]: 23.7% | trogocytosis (TCR transfer to K562) of CD8 co-expressing Jurkat cells relative to those only expressing TCR [3]: 3 fold
Substance: 1G4 TCR (A2/NYESO1 157-165-specific), expressed on cells

percentage of trogocytosis^+ MART1-K562 cells (one per 10,000 control cells) [1]: 73.4% | share of MART1-K562 among trogocytosis^+ target cells (1:1 mixture, co-incubated with F5-Jurkat) [1]: 94.9% | share of MART1-K562 among trogocytosis^- target cells (1:1 mixture, co-incubated with F5-Jurkat) [1]: 18.8% | shift in LNGFR and TCR staining of K562 target cells [1]: 2 to 3 fold | shift in streptavidin staining of K562 target cells (transfer of biotinylated Jurkat membrane proteins) [1]: 3.5 fold | trogocytosis (TCR transfer to K562) of CD8 co-expressing Jurkat cells relative to those only expressing TCR [1]: 3 fold | percentage of trogocytosis^+ control CD80^+HLA-A2^+ K562 cells (NYESO1-K562 dilution experiment) [2]: 0.35% | percentage of trogocytosis^+ control cells (MART1-K562 dilution experiment) [2]: 0.46% | percentage of trogocytosis^+ NYESO1-K562 target cells (diluted 1:10,000 in control cells) [3]: 0% | share of NYESO1-K562 among trogocytosis^- target cells (1:1 mixture, co-incubated with F5-Jurkat) [3]: 76.3%
Substance: F5 TCR (HLA-A2/MART1 26-35-specific), expressed on cells
Specific Cytotoxic Killing (Avg. % Specific Lysis), E:T 2 to 1 (Avg. % Specific Lysis) [1]: 0.16 | Specific Cytotoxic Killing (Avg. % Specific Lysis), E:T 4 to 1 (Avg. % Specific Lysis) [1]: 0.268 | Specific Cytotoxic Killing (Avg. % Specific Lysis), E:T 8 to 1 (Avg. % Specific Lysis) [1]: 0.377 | Specific Cytotoxic Killing (Avg. % Specific Lysis), E:T 16 to 1 (Avg. % Specific Lysis) [1]: 0.593 | Specific Cytotoxic Killing (Avg. % Specific Lysis), E:T 2 to 1 (Avg. % Specific Lysis) [4]: 0.0644 | Specific Cytotoxic Killing (Avg. % Specific Lysis), E:T 4 to 1 (Avg. % Specific Lysis) [4]: 0.0366 | Specific Cytotoxic Killing (Avg. % Specific Lysis), E:T 8 to 1 (Avg. % Specific Lysis) [4]: 0.0406 | Specific Cytotoxic Killing (Avg. % Specific Lysis), E:T 16 to 1 (Avg. % Specific Lysis) [4]: 0
